± gives the uncertainty stated by the source.
Experiment: amyloid nucleation score (Sup35N fusion, yeast selection) (log enrichment); library NNK2; higher = more nucleation; inactive = no reads after selection
How it was run: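 Libraries of peptides of 20 random codons fused to Sup35N were expressed in psi-negative yeast and induced 24 hours with 100 μM copper sulfate. Selection was 7 days at 30°C on medium lacking adenine and uracil, and plasmid inserts were Illumina-sequenced before and after selection. Nucleation score is the DiMSum log enrichment of output over input reads, centred on the mode score of non-aggregating sequences, and sequences with under 100 input reads were left out.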

Row | Substance | amyloid nucleation score
1 | YTRGCSFHIRVSSLCGQYNI | 1.65 ± 0.18
2 | NSYTFLNT | inactive
3 | RMLFVHPVGYGCEAAVGSSW | 1.09 ± 0.23
4 | TMYLFGYEV | 1.31 ± 0.35
5 | ILQYN | -1.49 ± 0.62
6 | LAMEWSRCRTGPL | 1.68 ± 0.15
7 | NLFFVGPCELSRWLGFSNLQ | 5.874 ± 0.032
8 | LELHGT | -1.22 ± 0.45
9 | MRTKGIRQADVFCESYRFNT | -0.029 ± 0.65
10 | QEELSWSS | 0.131 ± 0.25
11 | WLIKKASRYSN | -0.608 ± 1.1
12 | LYSESIVLFAYGFNGDGGLY | -0.67 ± 0.29
13 | VSPAHPNYFPISP | -0.889 ± 1.1
14 | ICWPSLLYAPGTVKMSTERV | 0.706 ± 0.6
15 | RFEHGSTFGDDKL | -1.26 ± 1.1
16 | HNVGILWSSCCSRMYIAYAY | -0.288 ± 1
17 | SGIAWSLVNVGLGYHYMQGG | 0.178 ± 0.39
18 | INISCLKVGALSKGTRLFR | 2.14 ± 0.068
19 | LGSYVACPRDTKDYQNNSMC | -0.877 ± 0.48
20 | GTGMTYAIWLSGIGRMRFYY | -0.816 ± 0.33
21 | DAFWCYVDTLYMNRPSQ | 0.988 ± 0.29
22 | RIDVAI | -0.457 ± 0.76

Row | Substance | amyloid nucleation score
23 | NMGIRRFKFYIVNA | -0.965 ± 0.78
24 | VRMNPITAGLCVQCLHTQRF | -0.654 ± 1
25 | DSSIAYFIGVLASIGADEDR | 6.452 ± 0.061
26 | TGLVMVHSTRVPKRLGMLCL | 0.967 ± 0.33
27 | LPIDVSNVGTFVEWIFFAIR | -1.5 ± 0.54
28 | PKVLGFFK | inactive
29 | TSFGWSGSCKLMYSMSTSGT | 0.636 ± 0.3
30 | WLQSETIHDVRSLRWVSIKC | 0.043 ± 0.74
31 | FWRTP | -0.539 ± 0.5
32 | VFSCYSVQHRRLSWMSCD | -0.385 ± 0.41
33 | WLFSVSISGREDMMWSGLLE | 0.061 ± 0.4
34 | MCFSIRPPGVMRVMHLTLVW | 0.135 ± 0.79
35 | PVLIVLYDIGSCKERKE | 0.134 ± 0.55
36 | GHNTYGYQRMRGCDV | 1.3 ± 0.38
37 | CVIGADALASG | 0.5 ± 0.38
38 | MEGITRFSPPKNSEYIVLAG | -0.613 ± 0.44
39 | FDALRIFVPVPYRRWSSR | 1.52 ± 0.28
40 | NSRSLTDTHDCMVTGWATRH | -0.159 ± 0.45
41 | SSMLPYSRHTIRVTKVRPPF | 0.561 ± 0.62
42 | WPGLCYCGMPVRMNWLLVTP | -0.661 ± 1.1
43 | SSKFTHDYGGEDIVIDQDES | 0.14 ± 0.53
44 | LGFIHSTG | inactive

Row | Substance | amyloid nucleation score
45 | GMIVLRCSRSCWFVQTKADG | 1.27 ± 0.48
46 | VIYSYMSGIVYGVMRSSPFW | inactive
47 | SKLIVWLTDLASSVSRMLLV | 4.09 ± 0.071
48 | SPFTTSRDFMHRTPLLCDTC | 1.32 ± 0.33
49 | TISLPYHHKVSRAMNSRF | -0.028 ± 0.62
50 | DSGCKFAAPCSVYPLFLFDM | -0.788 ± 1.1
51 | STSGVKAVQISLSSVPWRWD | 2.34 ± 0.13
52 | FDTASTVDSVRIRKTKSSQ | inactive
53 | VGDQF | inactive
54 | NWVNQTS | -1.6 ± 0.48
55 | RGYLTAT | -0.134 ± 0.53
56 | TTFMRVVLFAPVLYMYGKNR | 5.492 ± 0.043
57 | NLHFSLNCMIFQPTASRLKH | 6.824 ± 0.031
58 | SPFRTDHVF | -0.311 ± 0.33
59 | KSAQEF | 0.839 ± 0.43
60 | VKFCVWCGD | 7.039 ± 0.06
61 | TYLRSPLLLNAVSVNT | 0.082 ± 0.65
62 | EDLYFTTGMLAKKCGPQGMG | 5.04 ± 0.069
63 | LVSYV | -0.873 ± 0.76
64 | LLVFNLIYPSVRKGFFIIYA | inactive
65 | YICVTMPVWIH | 7.536 ± 0.042
66 | NTIEGPRYYGTFAISNGVTQ | 0.824 ± 0.48

Row | Substance | amyloid nucleation score
67 | NEYGLLYVFIPSSISPLADI | -1.5 ± 1.1
68 | GCWKD | 1.22 ± 0.36
69 | VCCKLEFVSKHFRCVNGCDE | 9.264 ± 0.055
70 | KINIKGFSSYAGRYHTRKIW | inactive
71 | GRNVMTKAPYCTCWANVLHS | 6.67 ± 0.075
72 | SILIFTLTCSDRNW | -0.245 ± 0.76
73 | GGTLHWLAMDTNMVNMACIG | inactive
74 | RIFVIVAGNYYFLAGFGYLA | -1.74 ± 0.64
75 | FNIERCLLISGMLCSPAVEL | -0.602 ± 1.1
76 | MGVLWMFFSF | 0.03 ± 0.4
77 | FVLSDQK | 0.347 ± 0.21
78 | SYPFYVFSSNASSTAVIKLT | 1.07 ± 0.19
79 | CIKALRVYFYEGFTSTR | -1.89 ± 1.1
80 | SGDMCFWFSQTRHGLFKGIL | -0.019 ± 0.37
81 | LRGVLLSETRCAKEGLPTLS | 0.365 ± 0.36
82 | FWRDLPAQWTRPKAENLVLK | 1.23 ± 0.32
83 | RTWAFFKAVWGIVDRTTLSN | -1.13 ± 0.62
84 | YTVFSTESPCWISQSKLRLA | -0.825 ± 0.78
85 | AFYMIRH | 3.66 ± 0.076
